Patent US20240327522A1 (Genentech, published 2024)

Assays:
Assay in all cases: SPR, Biacore T200, antibody captured on Protein A chip, 3-fold analyte series 0-100 nM, 37 C, 1:1 model; average ± as printed
[1] = target: T1, recombinant cynomolgus monkey αvβ8 protein (PARS-19393) (cynomolgus monkey, UniProt A0A2K5WCD3 31-992; G7P0S0 43-684)
T1 construct: also called cyno.aVb8-19393; cyno.aVb8
Method: (§1) The ability of the anti-αVP8-65 to bind to different αVβ8 proteins was assessed using SPR measurements (Karlsson et al. 1991) on a Biacore™ T200 (Cytiva Life Sciences; Marlborough, MA) instrument (Safsten et al. 2006). anti-αV08-65 was first captured on a Biacore™ Protein A biosensor chip (Cytiva Life Sciences) to achieve approximately 60 response units. Binding measurements were performed using a running buffer composed of 10 mM HEPES (pH 7.4), 150 mM NaCl, 0.5 mM CaCl₂), 0.5 mM MgCl₂, and 0.005% Surfactant P20 (Cytiva Life Sciences). A 3-fold dilution series of the analyte proteins (range, 0-100 nM in running buffer) was injected into the Biacore™ T200. All injections were performed over 180 seconds, with a dissociation time of 1200 seconds, at a flow rate of 100 μL/minute and a temperature of 37° C. Between sample injections, 10 mM glycine (pH 1.5) was injected to regenerate the sensor chip (twice, over 30 seconds at 10 μL/minute for each injection). To determine the binding kinetics and affinity constants of anti-αVP8-65 to the various species of the αVβ8 protein, the signal from the reference flow cell (FC1, with only protein A on the surface) was “double referenced” by subtracting the signal observed after injecting the sample over FC1, followed by subtracting the signal observed after injecting only running buffer. The kinetic constants were calculated using non-linear regression fitting of the data, according to a 1:1 Langmuir binding model, using Biacore™ Evaluation Software (Cytiva Life Sciences) for anti-αVP8-65 binding to recombinant human, cynomolgus monkey, mouse, and rat αVβ8 proteins.

[2] = target: T2, recombinant human αvβ8 protein (PARS-17102) (human)
T2 construct: also called hu.aVb8.17102; not shown: C-terminal acid/basic coils and any purification tags
T2 alpha: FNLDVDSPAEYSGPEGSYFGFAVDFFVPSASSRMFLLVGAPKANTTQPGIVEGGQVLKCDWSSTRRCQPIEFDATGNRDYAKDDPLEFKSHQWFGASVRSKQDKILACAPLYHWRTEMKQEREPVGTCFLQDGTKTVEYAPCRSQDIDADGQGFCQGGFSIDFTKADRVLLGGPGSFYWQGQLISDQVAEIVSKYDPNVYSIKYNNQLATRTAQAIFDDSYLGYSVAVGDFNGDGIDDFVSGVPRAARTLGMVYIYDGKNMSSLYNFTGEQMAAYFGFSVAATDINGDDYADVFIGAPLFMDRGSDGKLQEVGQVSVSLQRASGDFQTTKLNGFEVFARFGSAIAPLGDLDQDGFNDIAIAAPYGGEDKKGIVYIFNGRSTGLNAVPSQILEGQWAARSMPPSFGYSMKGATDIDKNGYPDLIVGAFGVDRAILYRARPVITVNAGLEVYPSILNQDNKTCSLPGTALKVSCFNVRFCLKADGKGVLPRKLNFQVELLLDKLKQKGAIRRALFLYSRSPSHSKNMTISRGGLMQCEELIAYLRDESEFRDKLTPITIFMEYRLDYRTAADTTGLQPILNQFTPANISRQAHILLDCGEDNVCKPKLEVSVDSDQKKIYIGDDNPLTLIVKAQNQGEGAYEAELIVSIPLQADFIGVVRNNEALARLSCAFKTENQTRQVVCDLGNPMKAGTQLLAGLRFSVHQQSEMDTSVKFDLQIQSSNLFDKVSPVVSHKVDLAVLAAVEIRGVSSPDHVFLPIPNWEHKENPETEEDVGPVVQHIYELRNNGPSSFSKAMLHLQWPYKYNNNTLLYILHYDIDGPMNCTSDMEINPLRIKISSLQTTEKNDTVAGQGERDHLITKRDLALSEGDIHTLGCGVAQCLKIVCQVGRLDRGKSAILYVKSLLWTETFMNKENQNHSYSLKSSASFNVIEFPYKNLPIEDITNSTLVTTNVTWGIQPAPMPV
T2 beta: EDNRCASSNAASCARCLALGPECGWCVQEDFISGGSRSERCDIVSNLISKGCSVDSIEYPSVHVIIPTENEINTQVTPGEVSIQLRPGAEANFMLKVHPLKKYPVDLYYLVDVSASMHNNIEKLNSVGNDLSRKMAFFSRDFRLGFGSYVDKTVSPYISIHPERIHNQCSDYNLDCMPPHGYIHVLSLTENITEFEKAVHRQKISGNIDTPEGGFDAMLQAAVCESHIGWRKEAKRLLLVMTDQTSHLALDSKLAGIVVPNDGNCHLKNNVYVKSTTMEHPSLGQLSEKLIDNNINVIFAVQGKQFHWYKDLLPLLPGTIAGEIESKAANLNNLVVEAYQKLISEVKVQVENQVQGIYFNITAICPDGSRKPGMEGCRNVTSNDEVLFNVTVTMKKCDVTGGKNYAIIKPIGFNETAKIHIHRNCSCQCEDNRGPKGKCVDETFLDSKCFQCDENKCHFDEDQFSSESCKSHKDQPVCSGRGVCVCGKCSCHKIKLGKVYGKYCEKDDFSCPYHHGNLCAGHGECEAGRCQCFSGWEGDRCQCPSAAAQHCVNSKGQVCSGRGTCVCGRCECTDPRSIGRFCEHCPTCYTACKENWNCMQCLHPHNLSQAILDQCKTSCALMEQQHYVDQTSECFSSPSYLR
Method: as §1

[3] = target: T3, recombinant rat αvβ8 protein (PARS-22180) (rat, UniProt F1LZX9 31-987; A0A0G2JVU1 43-682)
T3 construct: also called rat.aVb8
Method: as §1

[4] = target: T4, recombinant mouse αvβ8 protein (PARS-17103) (murine, UniProt P43406 31-988; Q0VBD0 43-681, limits assumed)
T4 construct: Made in house; also called mu.aVb8.17103
Method: as §1

T4 sequence (P43406 31-988 limits assumed, chain 1 of 2): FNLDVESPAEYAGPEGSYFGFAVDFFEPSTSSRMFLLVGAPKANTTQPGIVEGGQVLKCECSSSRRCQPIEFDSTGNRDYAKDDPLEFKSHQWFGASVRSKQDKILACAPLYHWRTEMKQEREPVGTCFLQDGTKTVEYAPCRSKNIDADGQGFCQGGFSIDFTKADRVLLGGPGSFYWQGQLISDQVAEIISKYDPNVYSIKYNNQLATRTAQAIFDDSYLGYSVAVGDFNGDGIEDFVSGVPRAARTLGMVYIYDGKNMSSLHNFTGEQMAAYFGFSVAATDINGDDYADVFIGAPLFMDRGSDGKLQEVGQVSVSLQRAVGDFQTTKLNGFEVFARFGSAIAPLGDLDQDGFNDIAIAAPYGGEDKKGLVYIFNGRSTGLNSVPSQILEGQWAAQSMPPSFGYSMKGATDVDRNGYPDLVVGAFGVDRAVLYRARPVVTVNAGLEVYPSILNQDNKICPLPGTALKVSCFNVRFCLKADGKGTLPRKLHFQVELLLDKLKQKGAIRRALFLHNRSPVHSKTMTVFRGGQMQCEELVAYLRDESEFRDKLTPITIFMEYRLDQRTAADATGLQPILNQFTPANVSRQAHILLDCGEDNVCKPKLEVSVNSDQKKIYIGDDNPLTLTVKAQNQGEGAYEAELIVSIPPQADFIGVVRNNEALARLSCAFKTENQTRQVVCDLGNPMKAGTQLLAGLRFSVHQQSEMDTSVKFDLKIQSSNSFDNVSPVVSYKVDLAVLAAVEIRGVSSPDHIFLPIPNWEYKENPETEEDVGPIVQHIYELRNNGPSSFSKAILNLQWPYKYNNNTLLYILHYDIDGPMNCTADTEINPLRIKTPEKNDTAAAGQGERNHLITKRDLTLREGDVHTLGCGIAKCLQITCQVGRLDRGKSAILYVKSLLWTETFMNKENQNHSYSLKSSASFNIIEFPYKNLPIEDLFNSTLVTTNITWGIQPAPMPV
T4 sequence (Q0VBD0 43-681 limits assumed, chain 2 of 2): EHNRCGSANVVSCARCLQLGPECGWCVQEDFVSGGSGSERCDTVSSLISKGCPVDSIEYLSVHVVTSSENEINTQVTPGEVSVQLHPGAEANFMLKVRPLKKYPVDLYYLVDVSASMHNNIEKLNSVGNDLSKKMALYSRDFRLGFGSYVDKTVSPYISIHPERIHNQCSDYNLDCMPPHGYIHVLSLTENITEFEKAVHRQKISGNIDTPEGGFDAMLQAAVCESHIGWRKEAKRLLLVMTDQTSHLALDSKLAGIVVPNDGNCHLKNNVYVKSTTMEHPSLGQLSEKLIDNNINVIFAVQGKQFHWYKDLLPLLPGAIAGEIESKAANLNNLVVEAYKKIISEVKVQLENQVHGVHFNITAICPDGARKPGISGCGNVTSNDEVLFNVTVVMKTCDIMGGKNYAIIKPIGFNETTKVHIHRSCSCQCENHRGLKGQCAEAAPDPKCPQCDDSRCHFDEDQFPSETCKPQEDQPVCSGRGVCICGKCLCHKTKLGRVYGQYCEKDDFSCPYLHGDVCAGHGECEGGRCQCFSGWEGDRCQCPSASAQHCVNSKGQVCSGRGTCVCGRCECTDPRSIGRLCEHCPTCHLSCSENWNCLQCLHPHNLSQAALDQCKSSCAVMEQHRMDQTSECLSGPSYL

- Kd [1]: 0.7 nM
- koff [1]: 0.00013 s⁻¹
- kon [1]: 180000 M⁻¹ s⁻¹
- Kd [2]: 0.5 nM
- koff [2]: 8.8e-05 s⁻¹
- kon [2]: 175000 M⁻¹ s⁻¹
- Kd [3]: 1 nM
- koff [3]: 0.00011 s⁻¹
- kon [3]: 104000 M⁻¹ s⁻¹
- Kd [4]: 0.94 nM
- koff [4]: 0.000108 s⁻¹
- kon [4]: 140000 M⁻¹ s⁻¹
B1: Hu.aVb8-65.H15L2 (aVb8-65.H15L2.hIgG1.LALAPG) (antibody, V domains shown)
VH: EVQLLESGGGLVQPGGSLRLSCAASGIDLSNYAMIWVRQAPGKGLEWVGIISSSDRIWYASWVKGRFTISRDNSKNTLYLQMNSLRAEDTAVYYCSRSVSNSYFDGWNLWGQGTLVTVSS
VL: DIQMTQSPSSVSASVGDRVTITCQASENINSLLAWYQQKPGKAPKLLIYRASTLASGVPSRFSGSGSGTDFTLTISSLQPEDFATYYCQSNYGFTGSGAFFYGFGQGTKVEIKR
notes: Human IgG1 LALAPG; also called PARS-20475-65 (IH) aVb8-65.H15L2.hIgG1.LALAPG; humanized αvβ8-65
